T1: FcγRIIA^131H (human, UniProt P12318 34-217, biotin-labeled)
T1 construct: extracellular domain; Bought protein; also called RIIAH
T1 sequence (looked up): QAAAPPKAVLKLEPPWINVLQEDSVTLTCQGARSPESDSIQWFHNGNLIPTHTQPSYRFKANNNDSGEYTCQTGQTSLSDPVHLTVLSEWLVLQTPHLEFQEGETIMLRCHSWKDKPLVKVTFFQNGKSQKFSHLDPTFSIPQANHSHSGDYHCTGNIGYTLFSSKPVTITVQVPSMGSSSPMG

T2: FcγRIIB (human, UniProt P31994 43-217, biotin-labeled)
T2 construct: extracellular domain; Bought protein; also called CD32b
T2 sequence (looked up): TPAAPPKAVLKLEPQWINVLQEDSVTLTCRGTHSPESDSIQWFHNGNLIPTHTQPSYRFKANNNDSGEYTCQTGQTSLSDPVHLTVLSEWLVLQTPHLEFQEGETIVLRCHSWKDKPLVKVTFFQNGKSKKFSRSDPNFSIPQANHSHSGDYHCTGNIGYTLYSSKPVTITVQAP

T3: FcγRIIA^131R (human, UniProt P12318 34-217, biotin-labeled)
T3 construct: extracellular domain; Bought protein; also called RIIAR
T3 sequence (looked up): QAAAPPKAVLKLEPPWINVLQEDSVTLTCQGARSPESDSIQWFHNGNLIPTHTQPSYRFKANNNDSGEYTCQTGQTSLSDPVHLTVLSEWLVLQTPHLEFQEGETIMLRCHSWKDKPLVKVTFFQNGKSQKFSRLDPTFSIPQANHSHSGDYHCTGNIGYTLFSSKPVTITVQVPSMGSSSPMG


Legend:
FcγRIIA^131H = target: T1, FcγRIIA^131H; experiment: ELISA, coated antibody, biotin-FcγR;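 on Absorbance value: antibody coated at 2 µg/mL at 100 µL per well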
FcγRIIB [1] = target: T2, FcγRIIB; experiment: ELISA, coated antibody, biotin-FcγR;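 on Absorbance value: antibody coated at 2 µg/mL at 100 µL per well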
FcγRIIIA^158V = target: T4, FcγRIIIA^158V (human, UniProt P08637 17-208, biotin-labeled); experiment: ELISA, coated antibody, biotin-FcγR;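 on Absorbance value: antibody coated at 2 µg/mL at 100 µL per well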
T4 construct: extracellular domain; Bought protein; also called RIIIAV; CD16a 158V

FcγRI = target: T5, FcγRI (human, UniProt P12314 16-292, biotin-labeled); experiment: ELISA, coated antibody, biotin-FcγR;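 on Absorbance value: antibody coated at 2 µg/mL at 100 µL per well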
T5 construct: extracellular domain; Bought protein; also called CD64

FcγRIIIA^158F = target: T6, FcγRIIIA^158F (human, UniProt P08637 17-208, biotin-labeled); experiment: ELISA, coated antibody, biotin-FcγR;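 on Absorbance value: antibody coated at 2 µg/mL at 100 µL per well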
T6 construct: extracellular domain; Bought protein; also called RIIIAF

FcγRIIA^131R = target: T3, FcγRIIA^131R; experiment: ELISA, coated antibody, biotin-FcγR;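 on Absorbance value: antibody coated at 2 µg/mL at 100 µL per well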
FcγRIIB [2] = target: T2, FcγRIIB; experiment: ELISA; relative affinity to FcγRIIB over that to FcγRIIA131R

T5 sequence (P12314 16-292): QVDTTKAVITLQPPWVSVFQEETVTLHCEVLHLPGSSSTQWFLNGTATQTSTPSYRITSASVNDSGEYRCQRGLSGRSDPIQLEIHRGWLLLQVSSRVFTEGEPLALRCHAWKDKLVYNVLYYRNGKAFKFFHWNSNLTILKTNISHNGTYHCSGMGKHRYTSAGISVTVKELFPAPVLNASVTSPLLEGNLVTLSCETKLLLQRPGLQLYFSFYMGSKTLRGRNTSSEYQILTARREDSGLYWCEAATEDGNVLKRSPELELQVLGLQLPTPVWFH
T4 sequence (P08637 17-208 F176V): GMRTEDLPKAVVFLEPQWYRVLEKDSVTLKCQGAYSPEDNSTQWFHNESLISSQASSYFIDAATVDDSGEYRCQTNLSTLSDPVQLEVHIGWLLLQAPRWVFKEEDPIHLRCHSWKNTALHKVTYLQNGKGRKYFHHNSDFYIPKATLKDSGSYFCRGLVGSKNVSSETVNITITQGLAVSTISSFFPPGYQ
T6 sequence (P08637 17-208): as the sequence (P08637 17-208 F176V) above, with V160F counted along it

Row | Absorbance value (FcγRIIA^131H) [A650] | Relative binding affinity RIIAH/G1 (FcγRIIA^131H) [ratio] | Absorbance value (FcγRIIB [1]) [A650] | Increased factor of RIIB binding compared with wild-type IgG2 (FcγRIIB [1]) [fold] | Relative binding affinity RIIB/G1 (FcγRIIB [1]) [ratio] | Absorbance value (FcγRIIIA^158V) [A650] | Relative binding affinity RIIIAV/G1 (FcγRIIIA^158V) [ratio] | Absorbance value (FcγRI) [A650] | Relative binding affinity RI/G1 (FcγRI) [ratio] | Absorbance value (FcγRIIIA^158F) [A650] | Relative binding affinity RIIIAF/G1 (FcγRIIIA^158F) [ratio] | Absorbance value (FcγRIIA^131R) [A650] | Relative binding affinity RIIAR/G1 (FcγRIIA^131R) [ratio] | RIIB/RIIAR (FcγRIIB [2]) [ratio] | Binder
1 | 0.33 | 0.57 | 0.93 | 12.3 | 1.22 | 0.07 | 0.07 | 0.12 | 0.05 | 0.06 | 0.33 | 0.31 | 1.17 | 1.05 | anti-human OX40 IgG2 antibody Mut_22 (V266L/S267M/H268E/P271Q) (antibody, name in EU numbering, Substitutions in Eu numbering; entries include an unstated signal peptide) heavy: QVQLQESGPGLVKPSGTLSLTCAVSGGSISSSIWWSWVRQPPGKGLEWIGEIHHSGNTNCNPSLKSRVTISIDKSKNQFSLKLTSVTAADTAVYYCARAGTGTTLDYWGQGTLVTVSSASTKGPSVFPLAPCSRSTSESTAALGCLVKDYFPEPVTVSWNSGALTSGVHTFPAVLQSSGLYSLSSVVTVPSSNFGTQTYTCNVDHKPSNTKVDKTVERKCCVECPPCPAPPVAGPSVFLFPPKPKDTLMISRTPEVTCVVVDLMEEDQEVQFNWYVDGVEVHNAKTKPREEQFNSTFRVVSVLTVVHQDWLNGKEYKCKVSNKGLPAPIEKTISKTKGQPREPQVYTLPPSREEMTKNQVSLTCLVKGFYPSDIAVEWESNGQPENNYKTTPPMLDSDGSFFLYSKLTVDKSRWQQGNVFSCSVMHEALHNHYTQKSLSLSPGK light: EIVLTQSPGTLSLSPGERATLSCRASQSVSGDYLAWYQQKLGQAPRLLIYGASIRATGIPDRFSGSGSGTDFTLTISKLEPEDFAVYYCQQYGSSPLTFGGGTKVEIKRTVAAPSVFIFPPSDEQLKSGTASVVCLLNNFYPREAKVQWKVDNALQSGNSQESVTEQDSKDSTYSLSSTLTLSKADYEKHKVYACEVTHQGLSSPVTKSFNRGEC
2 | 0.48 | 0.84 | 1 | 13.3 | 1.32 | 0.08 | 0.08 | 0.12 | 0.05 | 0.08 | 0.42 | 0.35 | 1.35 | 0.98 | anti-human OX40 IgG2 antibody Mut_24 (V266L/S267E/H268S/E269G/P271T) (antibody, name in EU numbering, Substitutions in Eu numbering; entries include an unstated signal peptide) heavy: QVQLQESGPGLVKPSGTLSLTCAVSGGSISSSIWWSWVRQPPGKGLEWIGEIHHSGNTNCNPSLKSRVTISIDKSKNQFSLKLTSVTAADTAVYYCARAGTGTTLDYWGQGTLVTVSSASTKGPSVFPLAPCSRSTSESTAALGCLVKDYFPEPVTVSWNSGALTSGVHTFPAVLQSSGLYSLSSVVTVPSSNFGTQTYTCNVDHKPSNTKVDKTVERKCCVECPPCPAPPVAGPSVFLFPPKPKDTLMISRTPEVTCVVVDLESGDTEVQFNWYVDGVEVHNAKTKPREEQFNSTFRVVSVLTVVHQDWLNGKEYKCKVSNKGLPAPIEKTISKTKGQPREPQVYTLPPSREEMTKNQVSLTCLVKGFYPSDIAVEWESNGQPENNYKTTPPMLDSDGSFFLYSKLTVDKSRWQQGNVFSCSVMHEALHNHYTQKSLSLSPGK light: EIVLTQSPGTLSLSPGERATLSCRASQSVSGDYLAWYQQKLGQAPRLLIYGASIRATGIPDRFSGSGSGTDFTLTISKLEPEDFAVYYCQQYGSSPLTFGGGTKVEIKRTVAAPSVFIFPPSDEQLKSGTASVVCLLNNFYPREAKVQWKVDNALQSGNSQESVTEQDSKDSTYSLSSTLTLSKADYEKHKVYACEVTHQGLSSPVTKSFNRGEC
3 | 0.06 | 0.1 | 0.86 | 11.5 | 1.14 | 0.05 | 0.06 | 0.12 | 0.05 | 0.07 | 0.36 | 0.3 | 1.13 | 1.01 | anti-human OX40 IgG2 antibody Mut_25 (V234Q/V266L/S267D/H268D/E269D/P271Q) (antibody, Substitutions in Eu numbering; entries include an unstated signal peptide) heavy: QVQLQESGPGLVKPSGTLSLTCAVSGGSISSSIWWSWVRQPPGKGLEWIGEIHHSGNTNCNPSLKSRVTISIDKSKNQFSLKLTSVTAADTAVYYCARAGTGTTLDYWGQGTLVTVSSASTKGPSVFPLAPCSRSTSESTAALGCLVKDYFPEPVTVSWNSGALTSGVHTFPAVLQSSGLYSLSSVVTVPSSNFGTQTYTCNVDHKPSNTKVDKTVERKCCVECPPCPAPPQAGPSVFLFPPKPKDTLMISRTPEVTCVVVDLDDDDQEVQFNWYVDGVEVHNAKTKPREEQFNSTFRVVSVLTVVHQDWLNGKEYKCKVSNKGLPAPIEKTISKTKGQPREPQVYTLPPSREEMTKNQVSLTCLVKGFYPSDIAVEWESNGQPENNYKTTPPMLDSDGSFFLYSKLTVDKSRWQQGNVFSCSVMHEALHNHYTQKSLSLSPGK light: EIVLTQSPGTLSLSPGERATLSCRASQSVSGDYLAWYQQKLGQAPRLLIYGASIRATGIPDRFSGSGSGTDFTLTISKLEPEDFAVYYCQQYGSSPLTFGGGTKVEIKRTVAAPSVFIFPPSDEQLKSGTASVVCLLNNFYPREAKVQWKVDNALQSGNSQESVTEQDSKDSTYSLSSTLTLSKADYEKHKVYACEVTHQGLSSPVTKSFNRGEC
4 | 0.48 | 0.84 | 0.7 | 9.29 | 0.92 | 0.1 | 0.11 | 0.18 | 0.07 | 0.09 | 0.49 | 0.28 | 1.06 | 0.87 | anti-human OX40 IgG2 antibody Mut_27 (V266L/S267E/H268S/P271V) (antibody, name in EU numbering, Substitutions in Eu numbering; entries include an unstated signal peptide) heavy: QVQLQESGPGLVKPSGTLSLTCAVSGGSISSSIWWSWVRQPPGKGLEWIGEIHHSGNTNCNPSLKSRVTISIDKSKNQFSLKLTSVTAADTAVYYCARAGTGTTLDYWGQGTLVTVSSASTKGPSVFPLAPCSRSTSESTAALGCLVKDYFPEPVTVSWNSGALTSGVHTFPAVLQSSGLYSLSSVVTVPSSNFGTQTYTCNVDHKPSNTKVDKTVERKCCVECPPCPAPPVAGPSVFLFPPKPKDTLMISRTPEVTCVVVDLESEDVEVQFNWYVDGVEVHNAKTKPREEQFNSTFRVVSVLTVVHQDWLNGKEYKCKVSNKGLPAPIEKTISKTKGQPREPQVYTLPPSREEMTKNQVSLTCLVKGFYPSDIAVEWESNGQPENNYKTTPPMLDSDGSFFLYSKLTVDKSRWQQGNVFSCSVMHEALHNHYTQKSLSLSPGK light: EIVLTQSPGTLSLSPGERATLSCRASQSVSGDYLAWYQQKLGQAPRLLIYGASIRATGIPDRFSGSGSGTDFTLTISKLEPEDFAVYYCQQYGSSPLTFGGGTKVEIKRTVAAPSVFIFPPSDEQLKSGTASVVCLLNNFYPREAKVQWKVDNALQSGNSQESVTEQDSKDSTYSLSSTLTLSKADYEKHKVYACEVTHQGLSSPVTKSFNRGEC
5 | 0.43 | 0.75 | 0.97 | 13 | 1.29 | 0.06 | 0.06 | 0.11 | 0.04 | 0.07 | 0.35 | 0.38 | 1.44 | 0.9 | anti-human OX40 IgG2 antibody Mut_23 (V266L/S267E/E269K/P271G) (antibody, name in EU numbering, Substitutions in Eu numbering; entries include an unstated signal peptide) heavy: QVQLQESGPGLVKPSGTLSLTCAVSGGSISSSIWWSWVRQPPGKGLEWIGEIHHSGNTNCNPSLKSRVTISIDKSKNQFSLKLTSVTAADTAVYYCARAGTGTTLDYWGQGTLVTVSSASTKGPSVFPLAPCSRSTSESTAALGCLVKDYFPEPVTVSWNSGALTSGVHTFPAVLQSSGLYSLSSVVTVPSSNFGTQTYTCNVDHKPSNTKVDKTVERKCCVECPPCPAPPVAGPSVFLFPPKPKDTLMISRTPEVTCVVVDLEHKDGEVQFNWYVDGVEVHNAKTKPREEQFNSTFRVVSVLTVVHQDWLNGKEYKCKVSNKGLPAPIEKTISKTKGQPREPQVYTLPPSREEMTKNQVSLTCLVKGFYPSDIAVEWESNGQPENNYKTTPPMLDSDGSFFLYSKLTVDKSRWQQGNVFSCSVMHEALHNHYTQKSLSLSPGK light: EIVLTQSPGTLSLSPGERATLSCRASQSVSGDYLAWYQQKLGQAPRLLIYGASIRATGIPDRFSGSGSGTDFTLTISKLEPEDFAVYYCQQYGSSPLTFGGGTKVEIKRTVAAPSVFIFPPSDEQLKSGTASVVCLLNNFYPREAKVQWKVDNALQSGNSQESVTEQDSKDSTYSLSSTLTLSKADYEKHKVYACEVTHQGLSSPVTKSFNRGEC

— patent publication US20230220042A1 (SHANGHAI JIAO TONG UNIVERSITY SCHOOL OF MEDICINE, published 2023)
